Four molecules from patent US20080311122A1, “Antagonists of Hmgb1 and/or Rage and Methods of Use Thereof” (Medimmune, LLC, priority 2005, published 2008) can be followed below.

Entries after “also recorded” stand apart in the source; their conditions may differ.

The chains are these.
B1: G16: human anti-HMG1 antibody; VL/VH aa SEQ ID NO: 42/44 (antibody, listed as Homo sapiens, V domains shown)
VH: EVQLLESGGGLVQPGGSLRLSCAASGFTFSWYKMTWVRQAPGKGLEWVSSISPSGGFTSYADSVKGRFTISRDNSKNTLYLQMNSLRAEDTAVYYCARDLDIRHAFDIWGQGTMVTVSS
VL: AQDIQMTQSPGTLSLSPGESGTLSCRASESVSSRHFAWYQQKPGQAPRLLIYGASSRPTGIPDRFSGSGSGTDFTLTLSRLEPEDFAVYFCQYYGSSPYTFGGGTKVEMK
B2: G12: human anti-HMG1 antibody; VL/VH aa SEQ ID NO: 38/40 (antibody, listed as Homo sapiens, V domains shown)
VH: EVQLLESGGGLVQPGGSLRLSCAASGFTFSYYMMTWVRQAPGKGLEWVSSISPSGGYTIYADSAKGRFTISRDNSKNTLYLQMNSLRAEDTAVYYCARALSTGSFWDYWGQGTLVTVSS
VL: AQDIQMTQSPGTLSLSPGERATLSCRASESLTSTYVAWYQHKPGQAPRLLIHGGSTRATGIPVRFSGSGSGTDFTLTIATLEPEDFAVYYCQQYGSSPYTFGQGTKLEIK
B3: G34: human anti-HMG1 antibody; VL/VH aa SEQ ID NO: 50/52 (antibody, listed as Homo sapiens, V domains shown)
VH: EVQLLESGGGLVQPGGSLRLSCAASGFTFSHYMMGWVRQAPGKGLEWVSRISPSGGGTVYADSVKGRFTISRDNSKNTLYLQMNSLRAEDTAVYYCARGGNWNYISYYYYYLDVWGKGTTVTVSS
VL: AQDIQMTQSPSSLSASVGDRVAITCRASQSIDTYLNWYQQKPGKAPKLLIYAASKLEDGVPSRFSGSGTGTDFTLTIRSLQPEDFASYFCQQSYSSPGITFGPGTKVEIK
B4: S14: human anti-HMG1 antibody; VL/VH aa SEQ ID NO: 66/68 (antibody, listed as Homo sapiens, V domains shown)
VH: EVQLLESGGGLVQPGGSLRLSCAASGFTFSWYETGWVRQAPGKGLEWVSGISPSGGYTQYADSVKGRFTISRDNSKNTLYLQMNSLRAEDTAVYYCARSGVGATKIFDYWGQGTLVTVSS
VL: AQDIQMTQSPSSLSASVGDRVTIICRANERINTYLNWYQQKPGKAPKLLISGTSSLESGVPSRFSGSGSGTEFTLSISSLQPEDFASYYCQQSYSSPYTFGQGTNLEIR

One data set concerns the target T1, recombinant HMG1 binding to RAGE-Fc (Homo sapiens, UniProt P09429).
T1 construct: made in house; host or cells: E. coli (HMG1)
T1 sequence (P09429 1-215): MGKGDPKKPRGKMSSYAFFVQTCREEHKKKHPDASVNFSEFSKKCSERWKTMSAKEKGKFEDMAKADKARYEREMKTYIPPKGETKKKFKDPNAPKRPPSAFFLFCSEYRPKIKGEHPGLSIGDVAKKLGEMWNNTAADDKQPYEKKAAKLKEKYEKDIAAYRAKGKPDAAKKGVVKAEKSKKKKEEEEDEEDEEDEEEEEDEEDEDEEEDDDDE
Nature of the data set: HMG1 binding to RAGE-Ig by ELISA. To be noted: at the concentrations tested. Here is the method: HMG1 binding to RAGE-Ig by ELISA: 50 μl/well of RAGE-Fc fusion protein at 5 μg/ml in PBS was added to each well of an ELISA plate and incubated overnight at 4° C. The plate was then blocked with 200 μl of 5% milk at 37° C. for 1 hr and washed 3× with PBS/Tween. 50 μl/well of diluted HMGB1 solution. For dose curves, HMGB1 concentrations started at 4 ug/ml in PBS. For antibody blocking the HMGB1 was preincubated in another plate with human anti-HMG1 antibodies or buffer, then transferred to the RAGE-coated plate. The plates were then incubated at room temperature for 2 hours and washed 3×. To detect any HMG1 bound to the immobilized RAGE-Fc a mixture of biotinylated mouse anti-HMG1 mAbs (10D4, 4H11, 3E10 and 5C12) each at 1 ug/ml, total Ab: 4 ug/ml, were added to each well and the plate was incubated for 1 hour at room temperature. The plate was then washed and Strepavidin-HPR was added to each well and incubated 15 min. The plate was then washed 3× and blotted dry. 100 μl of TMB developing agent was added and the plate read at 650 nm. Values were calculated as percent of inhibition with HMG1 alone equal to 0% inhibition. The data in FIG. 9 and summarized in Table 1 represent the average of two separate experiments.
With B1, the “block of recombinant HMG1 binding to RAGE” value is listed as “did not inhibit RAGE binding; also recorded: do not at the concentrations tested”.
On the same count and under the same terms, in the case of B2 it was “did not inhibit RAGE binding; also recorded: do not at the concentrations tested”; in that of B3, “do not at the concentrations tested”; in that of B4, “did not inhibit RAGE binding; also recorded: do not at the concentrations tested”.

The test system of another data set is HMG1 (recombinant, native; immobilized, soluble). Briefly: Direct and sandwich (capture) ELISA comparing forms of HMG1. It counts as binding. Conditions: two ELISA formats, rHMG1. As to the method: Direct ELISA (immobilized HMG1): Individual wells of a 96-well immunoplate (EIA/RIA plate, High binding, Costar) were coated with HMGB-1 at 5 μg/ml in PBS at 4° C. overnight. The plate was then blocked with 4% milk powder dissolved in PBS at 37° C. for 1 hour. The blocking solution was removed and replaced with human anti-HMG1 antibodies at various concentrations (see FIG. 4A). The plate was then washed (ELX-405 Plate washer, BIO-TEK) and secondary antibody (anti-human IgG-HRP, PIERCE) was added at a final concentration of 1:125,000 at 37° C. for 1 hour. HRP activity was detected with Sureblue HRP substrate (KPL). Plates were read at 450 nm using a Kinetic Microplate Reader (Molecular Devices).
Sandwich ELISA (soluble HMG1): Immunoplates (EIA/RIA plate, High binding, Costar) were coated with anti human IgG Fc at 10 μg/ml in PBS (pH 7.2) and incubated at 4° C. overnight. The coating reagent was removed and the plates were rinsed briefly with PBS. The plates were then blocked with 4% milk for 1 hour at 37° C. and rinsed with PBS. The anti-HMG1 antibodies were diluted in 4% milk. For serial dilutions, the antibodies were used at a starting concentration of 20 μg/ml. The diluted anti-HMG1 antibodies were then added into plate and incubated for 1 hr at 37° C. The plate was then washed 10 times with PBST (PBS/0.1% tween 20) and incubate with antigen (HMGB1, 2 μg/ml; or 0.7 μg/ml for native HMGB1) in 4% milk and incubated at 37° C. for 1 h. The plate was then wash 10 times and incubated with mouse anti-HMGB1, 1 μg/ml in 4% milk at 37° C. for 1 h. The plate was washed 10 times and incubated with anti-mouse IgG-HRP at 1:1000 at 37° C. for 1 h. The plate was then washed and developed. HRP activity was detected with Sureblue HRP substrate (KPL). Plates were read at 450 nm using a Kinetic Microplate Reader (Molecular Devices).
As to B1, the “binding to immobilized versus soluble HMG1” value is listed as “bound slightly better to immobilized rHMG1”.
B2: the “binding to immobilized versus soluble HMG1” value is recorded as “little difference in binding to immobilized or soluble HMG1”.
Same read-out and setting: in the case of B3 it was “bind better to soluble rHMG1”.

The target in the next data set is T2, HMG2 (Bos taurus, UniProt P40673).
T2 construct: from tissue; host or cells: calf thymus (as read from the sentence)
T2 sequence (P40673 1-209): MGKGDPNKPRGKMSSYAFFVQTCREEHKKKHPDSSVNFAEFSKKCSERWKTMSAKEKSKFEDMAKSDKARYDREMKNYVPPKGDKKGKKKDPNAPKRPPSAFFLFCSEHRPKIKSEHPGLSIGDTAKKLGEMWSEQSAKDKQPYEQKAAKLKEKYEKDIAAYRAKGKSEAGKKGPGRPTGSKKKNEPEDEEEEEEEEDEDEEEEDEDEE
Nature of the data set: Binding to HMG1 vs. HMG2 ELISA. Details: species or system calf. Conditions: immobilized antigen. Here is the method: Binding to HMG1 vs. HMG2: Ultra high-binding ELISA plates (ThermoLab systems, #3855) were coated with either 5 ug/mL of Calf thymus HMGB1 or HMBG2 diluted in 10 mM Phosphate buffered saline (PBS), pH 7.2 and incubate overnight at 4 degrees. The plates were washed twice with Ca and Mg free PBS and 100 microliters of anti-HMGB1 antibody diluted in 10 mM PBS, pH 7.2+1% bovine serum albumin (BSA) to a final concentration of 10 ug/mL was added to each well and the plates were incubated 1 hour at room temperature. The wells were washed three times with 100 μl of PBS, pH 7.2. HRP labeled goat-anti-human IgG Kappa-chain (KPL, #14-10-10) and goat-anti-human IgG Lambda-chain (KPL, #14-10-11) were diluted in 10 mM PBS+1% BSA 1:1000 and 100 μl were added to each well and incubated for 1 hour at room temperature. The wells were then washed three times with 100 μl of PBS, pH 7.2. OPD substrate (Pierce chemical company, #34006) was prepared following the manufacturers instructions and 100 μl of prepared substrate was added to each well and the plates incubated at room temperature in the dark for 20-30 minutes. The reaction was stopped with the addition of 100 μl of 2M H2SO4, and the plates read on a plate reader at a wavelength of 490 nm.
As for B2, the “relative binding to HMG1 and HMG2” value is “specific for HMG1”.
Take B3: the “relative binding to HMG1 and HMG2” value is recorded as “specific for HMG1”.
B4: the “relative binding to HMG1 and HMG2” value is “specific for HMG1”.

Tested on in another data set: not listed separately
Briefly: Isoelectric focusing gel electrophoresis. It counts as physicochemical.
Details: not given
Here is the method: Isoelectric Focusing Gel Electrophoresis: Isoelectric points were determined using a Pharmacia Biotech Multiphor 2 electrophoresis system with a multi temp 3 refrigerated bath recirculation unit and an EPS 3501 XL power supply. Pre-cast ampholine gels (Amersham Biosciences, pI range 2.5-10) were loaded with 5 μg of protein. Broad range pI marker standards (Amersham, pI range 3-10, 8 μL) were used to determine relative pI for the Mabs. Electrophoresis was performed at 1500 V, 50 mA for 105 minutes. The gel was fixed using a Sigma fixing solution (5×) diluted with purified water to 1×. Staining was performed overnight at room temperature using Simply Blue stain (Invitrogen). Destaining was carried out with a solution that consisted of 25% ethanol, 8% acetic acid and 67% purified water. Isoelectric points were determined using a Bio-Rad Densitometer relative to calibration curves of the standards.
As for B2, the PI was 8.6.
The molecule B3 came in with a PI of roughly 8.7.
B4 gave a PI of 8.62.

Tested on in a further data set: not listed separately
Nature of the data set: Differential scanning calorimetry. It counts as physicochemical. To be noted: in °C (unit assumed). The arrangement: unit: °C. Here is the method: Differential Scanning Calorimetry: Thermal melting temperatures (Tm) were measured with a VP-DSC (MicroCal, LLC) using a scan rate of 1.0° C./min and a temperature range of 25-120° C. A filter period of 8 seconds was used along with a 5 minute pre-scan thermostating. Samples were prepared by dialysis into 25 mM Histidine-HCl, pH 6 using Pierce dialysis cups (3.5 kD). Average Mab concentrations were 50 μg/mL as determined by A280. Melting temperatures were determined following manufacturer procedures using Origin software supplied with the system. Briefly, multiple baselines were run with buffer in both the sample and reference cell to establish thermal equilibrium. After the baseline was subtracted from the sample thermogram, the data were concentration normalized and fitted using the deconvolution function.
Take B2: the Tm was determined as 78.8.
Take B3: the Tm is on record as roughly 75.
As to B4, the Tm worked out at 70.7.
